From paper PMC5737834
Where “and” joins values, the source holds several entries; their conditions need not be identical. Equal values may be shown once.

Target: Recombinant human SP-A1 (SP-A1^hyp) (human) (UniProt Q8IWL2)
Assay: native gel or EMSA + AUC

Recombinant human SP-A1 (SP-A1^hyp) (from UniProt Q8IWL2 21-248) (natural protein)
stoichiometry N: 3 and 6
